Values quoted from earlier work as cited in US9867860B2, “Formulations for preventing and treating decreasing platelet cell counts” (priority 2013, dated 2018).

Tests used:
[1] = system: patients with ITP and liver disease; settings: for side effects: human, in vivo
[2] = system: refractory immune thrombocytopenia; settings: two cases; high-dose vitamin D supplementation and hydroxychloroquine in combination
thrombocytopenia = settings: Vitamin B12 and folate together, deficiency
[3] = system: thrombocytopenia associated with chemotherapy, HCV infection, or early liver cirrhosis
[4] = system: patients with solid tumors who had previously received platelet transfusion because of myelosuppression; settings: randomized, placebo-controlled trial

CC1=NN(c2ccc(C)c(C)c2)C(=O)/C1=N\Nc1cccc(-c2cccc(C(=O)O)c2)c1O [Eltrombopag]
side effects [1]: bone marrow fibrosis, thrombosis, and ocular toxicities

CCN(CCO)CCCC(C)Nc1ccnc2cc(Cl)ccc12 (stereo not shown) [hydroxychloroquine, reference compound]
treatment outcome of refractory immune thrombocytopenia [2]: successfully treated

Romiplostim
side effects [1]: bone marrow fibrosis, thrombosis, and ocular toxicities | platelet count ([1]; patients with ITP and liver disease, continuous treatment): increase platelet count

Vitamin B12
correction of thrombocytopenia on repletion (thrombocytopenia): rapidly corrects

vitamin D
treatment outcome of refractory immune thrombocytopenia [2]: successfully treated

B1: IL-11: recombinant human IL-11, cytokine stimulating megakaryocyte maturation (protein, UniProt P20809 22-199, looked up)
Interleukin-11: PGPPPGPPRVSPDPRAELDSTVLLTRSLLADTRQLAAQLRDKFPADGDHNLDSLPTLAMSAGALGALQLPGVLTRLRADLLSYLRHVQWLRRAGGSSLKTLEPELGTLQARLDRLLRRLQLLMSRLALPQPPPDPPAPPLAPPSSAWGGIRAAHAILGGLHLTLDWAVRGLLLLKTRL
platelet counts, IL-11 group versus peanut skins extract group (myelosuppressed mice; d7): significantly higher | platelet counts versus control thrombocytopenia group (myelosuppressed mice; d7, subcutaneous): significantly improved | platelet counts (myelosuppressed mice; d10, subcutaneous): further improved | other side effects ([3]; human, in vivo): dyspnea, atrial arrhythmias, syncope, and fatigue | side effect: edema, share of patients ([3]; human, in vivo): more than 50 % of patients | correction of thrombocytopenia ([3]; thrombocytopenia associated with chemotherapy, HCV infection, or early liver cirrhosis, in some degree): could correct thrombocytopenia | reduction of the number of patients in need of platelet transfusions [4]: 26%
